PMC12421377, “Molecular basis for the recognition of low-frequency polyadenylation signals by mPSF”

molecular target: T1, mPSF (CPSF160-WDR33-CPSF30-Fip1) (human, UniProt Q10570;Q9C0J8;O95639-2;Q6UN15 1-1443;1-572;1-244;1-594); assay: competition fluorescence anisotropy; vs 3 nM FAM-AAUAAA, 30 nM mPSF; 20 mM Tris pH 8.0, 150 mM NaCl, 10 mM DTT, 100 nM BSA, 0.01% NP-40; 45 min on ice, read at room temperature; triplicates; conditions: protein: recombinant; copies: 1;1;1;1
T1 sequence (Q10570 whole entry, chain 1 of 4): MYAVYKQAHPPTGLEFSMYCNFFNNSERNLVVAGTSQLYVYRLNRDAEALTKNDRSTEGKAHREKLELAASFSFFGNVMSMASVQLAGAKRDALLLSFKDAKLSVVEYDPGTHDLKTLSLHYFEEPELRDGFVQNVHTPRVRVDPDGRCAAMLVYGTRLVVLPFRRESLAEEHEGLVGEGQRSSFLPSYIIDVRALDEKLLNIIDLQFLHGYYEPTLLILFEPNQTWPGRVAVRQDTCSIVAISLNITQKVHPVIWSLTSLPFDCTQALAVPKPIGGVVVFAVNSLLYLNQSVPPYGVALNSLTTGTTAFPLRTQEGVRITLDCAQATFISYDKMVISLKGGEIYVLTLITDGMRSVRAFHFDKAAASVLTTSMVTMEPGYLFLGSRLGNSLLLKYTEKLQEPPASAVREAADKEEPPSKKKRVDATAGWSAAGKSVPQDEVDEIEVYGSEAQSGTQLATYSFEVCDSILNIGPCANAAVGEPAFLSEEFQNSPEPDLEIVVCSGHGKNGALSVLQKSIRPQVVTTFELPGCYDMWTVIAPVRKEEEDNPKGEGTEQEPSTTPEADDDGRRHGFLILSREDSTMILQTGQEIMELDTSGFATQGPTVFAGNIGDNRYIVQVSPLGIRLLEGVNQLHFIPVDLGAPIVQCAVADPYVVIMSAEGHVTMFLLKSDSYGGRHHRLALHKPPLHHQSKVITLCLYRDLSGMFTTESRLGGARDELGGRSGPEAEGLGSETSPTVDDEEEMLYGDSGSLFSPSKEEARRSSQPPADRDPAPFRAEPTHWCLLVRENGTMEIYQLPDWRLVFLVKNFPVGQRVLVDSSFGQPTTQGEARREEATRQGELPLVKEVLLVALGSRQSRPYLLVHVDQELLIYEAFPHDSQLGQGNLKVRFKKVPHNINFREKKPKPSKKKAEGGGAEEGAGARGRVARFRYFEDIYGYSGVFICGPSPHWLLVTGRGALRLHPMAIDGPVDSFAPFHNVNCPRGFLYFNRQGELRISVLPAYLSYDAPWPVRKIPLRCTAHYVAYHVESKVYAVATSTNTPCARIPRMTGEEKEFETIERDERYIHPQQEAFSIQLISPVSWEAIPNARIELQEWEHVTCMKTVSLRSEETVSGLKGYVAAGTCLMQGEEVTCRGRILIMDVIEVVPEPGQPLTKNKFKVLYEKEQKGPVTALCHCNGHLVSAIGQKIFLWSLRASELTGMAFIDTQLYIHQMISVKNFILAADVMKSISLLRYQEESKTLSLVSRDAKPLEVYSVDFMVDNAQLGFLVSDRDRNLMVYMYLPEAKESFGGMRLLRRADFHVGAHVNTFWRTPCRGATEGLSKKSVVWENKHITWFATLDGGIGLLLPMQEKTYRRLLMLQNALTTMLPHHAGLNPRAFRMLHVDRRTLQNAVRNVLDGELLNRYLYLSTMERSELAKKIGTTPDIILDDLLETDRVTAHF
T1 sequence (Q9C0J8 1-572, chain 2 of 4): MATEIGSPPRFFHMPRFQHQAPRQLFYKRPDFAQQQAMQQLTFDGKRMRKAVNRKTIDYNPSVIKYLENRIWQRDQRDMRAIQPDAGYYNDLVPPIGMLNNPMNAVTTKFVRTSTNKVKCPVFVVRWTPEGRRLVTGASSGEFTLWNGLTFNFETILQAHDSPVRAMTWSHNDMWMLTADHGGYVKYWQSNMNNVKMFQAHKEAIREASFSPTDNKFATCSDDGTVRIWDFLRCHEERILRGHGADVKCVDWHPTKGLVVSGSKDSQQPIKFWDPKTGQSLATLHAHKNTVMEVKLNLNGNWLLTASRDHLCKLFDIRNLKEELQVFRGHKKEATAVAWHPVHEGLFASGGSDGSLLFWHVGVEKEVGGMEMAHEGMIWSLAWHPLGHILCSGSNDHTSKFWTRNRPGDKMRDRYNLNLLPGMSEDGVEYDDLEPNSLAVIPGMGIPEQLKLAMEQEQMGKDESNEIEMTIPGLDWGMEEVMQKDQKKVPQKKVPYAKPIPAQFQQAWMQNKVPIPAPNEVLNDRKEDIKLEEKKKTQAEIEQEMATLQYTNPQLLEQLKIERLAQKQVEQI
T1 sequence (O95639 other isoform, or with tags, fused parts or gaps, chain 3 of 4): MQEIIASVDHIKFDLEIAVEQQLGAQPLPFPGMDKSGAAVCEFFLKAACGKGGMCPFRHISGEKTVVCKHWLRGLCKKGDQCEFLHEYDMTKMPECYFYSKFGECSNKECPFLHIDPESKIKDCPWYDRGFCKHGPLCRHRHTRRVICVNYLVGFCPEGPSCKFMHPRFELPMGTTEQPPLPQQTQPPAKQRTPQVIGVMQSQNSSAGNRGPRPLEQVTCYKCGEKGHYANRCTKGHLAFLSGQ
T1 sequence (Q6UN15 whole entry, chain 4 of 4): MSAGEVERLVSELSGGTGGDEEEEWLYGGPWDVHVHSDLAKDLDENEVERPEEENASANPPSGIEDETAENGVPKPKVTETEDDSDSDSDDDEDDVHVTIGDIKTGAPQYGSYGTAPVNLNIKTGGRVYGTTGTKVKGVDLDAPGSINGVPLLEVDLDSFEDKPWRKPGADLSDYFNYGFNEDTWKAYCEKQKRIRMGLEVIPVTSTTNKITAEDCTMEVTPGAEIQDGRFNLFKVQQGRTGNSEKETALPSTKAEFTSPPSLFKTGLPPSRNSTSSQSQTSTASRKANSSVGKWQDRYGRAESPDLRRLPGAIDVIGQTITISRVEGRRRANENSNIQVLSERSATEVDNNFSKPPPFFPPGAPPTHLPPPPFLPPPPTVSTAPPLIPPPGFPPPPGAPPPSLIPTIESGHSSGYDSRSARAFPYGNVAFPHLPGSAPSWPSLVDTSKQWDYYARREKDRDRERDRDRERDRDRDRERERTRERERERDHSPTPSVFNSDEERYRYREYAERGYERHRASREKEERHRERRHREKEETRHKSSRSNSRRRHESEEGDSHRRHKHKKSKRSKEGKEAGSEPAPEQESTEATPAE

Binder | Kd
UGCAAUAAACAA (ssRNA) [AAUAAA 12-mer] | 40 nM

molecular target: T1, mPSF (CPSF160-WDR33-CPSF30-Fip1); assay: cryo-EM structure (3.1 A); RNA up to 40 uM, mPSF 1.4 uM; 20 mM Tris pH 8.0, 150 mM NaCl, 10 mM DTT, 100 nM BSA, 0.01% NP-40; 45 min on ice, read at room temperature; triplicates; conditions: protein: recombinant; copies: 1;1;1;1

Binder | binding result
UGCAAUAAUCAA (ssRNA) [AAUAAU 12-mer] | binds

molecular target: T1, mPSF (CPSF160-WDR33-CPSF30-Fip1); assay: competition fluorescence anisotropy; vs FAM-AAUAAA; 20 mM Tris pH 8.0, 150 mM NaCl, 10 mM DTT, 100 nM BSA, 0.01% NP-40; 45 min on ice, read at room temperature; triplicates; conditions: protein: recombinant; copies: 1;1;1;1

Binder | Kd
UGCAAUGAACAA (ssRNA) [AAUGAA 12-mer] | 1180 nM
UGCAUUAUACAA (ssRNA) [AUUAUA 12-mer] | 2140 nM
UGCAUUAAACAA (ssRNA) [AUUAAA 12-mer] | 79 nM
UGCACUAAACAA (ssRNA) [ACUAAA 12-mer] | 2700 nM
UGCAAUACACAA (ssRNA) [AAUACA 12-mer] | 2200 nM
UGCCAUAAACAA (ssRNA) [CAUAAA 12-mer] | 780 nM
UGCUAUAAACAA (ssRNA) [CUAUAAA-context UAUAAA 12-mer] | 520 nM
UGCAAGAAACAA (ssRNA) [AAGAAA 12-mer] | 1870 nM
UGCGAUAAACAA (ssRNA) [GAUAAA 12-mer] | 580 nM
UGCAACAAACAA (ssRNA) [AACAAA 12-mer] | 13000 nM
UGCAAUAGACAA (ssRNA) [AAUAGA 12-mer] | 2000 nM
UGCAAUAUACAA (ssRNA) [AAUAUA 12-mer] | 2500 nM
UGCAAUAAGCAA (ssRNA) [AAUAAG 12-mer] | 11500 nM

molecular target: T1, mPSF (CPSF160-WDR33-CPSF30-Fip1); assay: cryo-EM structure (2.5 A); RNA up to 40 uM, mPSF 1.4 uM; 20 mM Tris pH 8.0, 150 mM NaCl, 10 mM DTT, 100 nM BSA, 0.01% NP-40; 45 min on ice, read at room temperature; triplicates; conditions: protein: recombinant; copies: 1;1;1;1

Binder | binding result
UGCAGUAAACAA (ssRNA) [AGUAAA 12-mer] | binds
